Common to all, as to experiment: radioligand displacement, 10 uM compound
Common to all, as to settings: remark: other sources report otherwise
(Displacement assays read how much labelled ligand stays bound in the presence of the test substance.)

Assay [1] concerns the target T1, 5-HT1A (h) (human (printed (h))), P08908.
T1 chain: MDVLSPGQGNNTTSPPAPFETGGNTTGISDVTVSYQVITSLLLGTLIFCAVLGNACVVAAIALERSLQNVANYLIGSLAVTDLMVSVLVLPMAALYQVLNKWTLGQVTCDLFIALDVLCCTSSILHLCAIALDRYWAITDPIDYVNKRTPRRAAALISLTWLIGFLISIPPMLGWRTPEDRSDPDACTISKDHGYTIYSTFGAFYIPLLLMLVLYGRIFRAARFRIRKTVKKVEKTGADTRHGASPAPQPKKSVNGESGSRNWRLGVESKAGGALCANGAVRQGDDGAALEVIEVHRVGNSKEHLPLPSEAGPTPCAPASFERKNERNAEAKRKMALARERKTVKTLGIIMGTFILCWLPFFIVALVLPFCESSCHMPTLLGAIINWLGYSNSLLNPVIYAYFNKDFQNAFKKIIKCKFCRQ

Assay [2] addresses T2, A2A (h) (human (printed (h))), P29274.
T2 chain: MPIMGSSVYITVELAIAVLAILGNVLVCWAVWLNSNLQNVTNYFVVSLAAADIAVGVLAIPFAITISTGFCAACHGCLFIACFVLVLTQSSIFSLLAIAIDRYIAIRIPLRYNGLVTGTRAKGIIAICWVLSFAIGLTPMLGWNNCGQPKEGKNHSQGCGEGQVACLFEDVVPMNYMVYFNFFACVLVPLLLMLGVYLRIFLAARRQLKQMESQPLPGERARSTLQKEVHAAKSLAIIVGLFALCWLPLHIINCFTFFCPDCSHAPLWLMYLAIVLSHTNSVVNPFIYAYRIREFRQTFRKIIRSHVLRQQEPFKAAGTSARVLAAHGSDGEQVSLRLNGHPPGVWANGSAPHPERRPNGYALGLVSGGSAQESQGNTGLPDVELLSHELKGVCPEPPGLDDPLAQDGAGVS

Assay [3] deals with T3, AR (h) (human (printed (h))), P10275.
T3 chain: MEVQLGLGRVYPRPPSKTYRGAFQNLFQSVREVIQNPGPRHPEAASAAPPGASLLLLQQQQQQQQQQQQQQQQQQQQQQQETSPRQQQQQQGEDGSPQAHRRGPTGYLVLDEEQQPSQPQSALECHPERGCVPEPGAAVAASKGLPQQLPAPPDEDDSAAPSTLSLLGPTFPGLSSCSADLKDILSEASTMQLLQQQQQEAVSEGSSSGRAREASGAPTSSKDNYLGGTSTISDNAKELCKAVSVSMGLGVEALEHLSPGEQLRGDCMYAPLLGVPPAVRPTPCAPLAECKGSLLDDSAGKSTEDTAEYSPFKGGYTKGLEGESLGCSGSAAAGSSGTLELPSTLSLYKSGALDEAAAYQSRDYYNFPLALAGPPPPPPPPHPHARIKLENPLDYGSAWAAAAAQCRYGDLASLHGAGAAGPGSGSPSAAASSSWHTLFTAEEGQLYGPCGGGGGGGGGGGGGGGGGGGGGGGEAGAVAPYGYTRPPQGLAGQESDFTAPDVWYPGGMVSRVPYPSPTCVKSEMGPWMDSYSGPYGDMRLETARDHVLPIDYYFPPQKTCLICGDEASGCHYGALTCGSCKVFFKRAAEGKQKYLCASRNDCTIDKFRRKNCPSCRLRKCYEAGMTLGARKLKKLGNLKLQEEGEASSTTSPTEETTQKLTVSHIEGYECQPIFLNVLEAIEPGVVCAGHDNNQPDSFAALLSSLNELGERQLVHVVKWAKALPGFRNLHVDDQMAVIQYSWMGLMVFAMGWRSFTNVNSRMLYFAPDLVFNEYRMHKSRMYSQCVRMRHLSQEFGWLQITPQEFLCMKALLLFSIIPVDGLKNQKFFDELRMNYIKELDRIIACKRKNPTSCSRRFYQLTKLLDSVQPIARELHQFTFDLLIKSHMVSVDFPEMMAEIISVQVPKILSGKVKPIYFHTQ

The target of assay [4] is T4, D1 (h) (human (printed (h))), P21728.
T4 chain: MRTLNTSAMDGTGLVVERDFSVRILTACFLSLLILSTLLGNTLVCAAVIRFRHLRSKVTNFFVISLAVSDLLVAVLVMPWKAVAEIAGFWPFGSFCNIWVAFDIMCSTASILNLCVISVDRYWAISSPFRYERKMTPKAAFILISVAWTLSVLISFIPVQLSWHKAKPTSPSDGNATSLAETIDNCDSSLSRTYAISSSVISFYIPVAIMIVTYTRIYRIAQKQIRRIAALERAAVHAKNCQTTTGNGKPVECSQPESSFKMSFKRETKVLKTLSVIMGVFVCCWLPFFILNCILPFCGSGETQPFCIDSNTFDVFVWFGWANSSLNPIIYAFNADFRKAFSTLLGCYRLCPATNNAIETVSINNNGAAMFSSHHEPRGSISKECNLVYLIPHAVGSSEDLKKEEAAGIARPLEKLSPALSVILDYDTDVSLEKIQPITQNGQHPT

The target of assay [5] is H1 (h) (human (printed (h))), P35367.
Assay [6] addresses beta 1 (h) (human (printed (h))), P08588.
Assay [7] has as its target beta 2 (h) (human (printed (h))), P07550.
For assay [8], the target named is kappa (h) (KOP) (human (printed (h))), P41145.

Bridge positions count the residues as written; N and C are the ends. * marks the point of attachment. tMeBn(DOTA-AET) = Cys-Cys bridge (thioethers) carrying DOTA-AET; tMeBn(DOTA-PP) = Cys-Cys bridge (thioethers) carrying DOTA-PP; Hexanoyl = CCCCCC(=O)*

Sequence of kappa (h) (KOP) (human (printed (h))), P41145 (P41145 whole entry): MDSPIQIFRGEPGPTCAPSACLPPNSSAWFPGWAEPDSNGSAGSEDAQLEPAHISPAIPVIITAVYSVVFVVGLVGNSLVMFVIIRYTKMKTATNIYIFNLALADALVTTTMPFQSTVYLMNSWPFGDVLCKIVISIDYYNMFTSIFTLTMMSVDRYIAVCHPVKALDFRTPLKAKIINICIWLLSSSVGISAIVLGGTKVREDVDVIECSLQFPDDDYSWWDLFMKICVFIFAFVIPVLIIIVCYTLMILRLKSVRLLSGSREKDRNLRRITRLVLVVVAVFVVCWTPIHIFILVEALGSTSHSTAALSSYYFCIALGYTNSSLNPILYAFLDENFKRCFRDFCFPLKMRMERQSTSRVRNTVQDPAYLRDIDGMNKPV
Sequence of H1 (h) (human (printed (h))), P35367 (P35367 whole entry): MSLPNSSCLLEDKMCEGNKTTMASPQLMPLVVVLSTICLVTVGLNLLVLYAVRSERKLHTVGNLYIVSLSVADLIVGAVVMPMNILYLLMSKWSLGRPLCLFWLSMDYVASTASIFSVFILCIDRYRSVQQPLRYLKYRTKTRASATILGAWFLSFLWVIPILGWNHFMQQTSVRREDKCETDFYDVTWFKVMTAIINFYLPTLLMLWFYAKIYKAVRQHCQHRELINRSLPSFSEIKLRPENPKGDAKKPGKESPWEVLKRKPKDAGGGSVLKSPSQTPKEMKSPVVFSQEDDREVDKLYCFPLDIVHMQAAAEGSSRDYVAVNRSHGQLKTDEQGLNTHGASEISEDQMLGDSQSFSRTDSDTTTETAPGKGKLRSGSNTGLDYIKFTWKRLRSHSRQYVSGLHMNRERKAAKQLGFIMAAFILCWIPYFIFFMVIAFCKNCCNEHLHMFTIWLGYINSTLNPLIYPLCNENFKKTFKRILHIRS

B1: Hex-[Cys(tMeBn(DOTA-PP))-Pro-Pro-Thr-Gln-Phe-Cys]-Asp-NH2 (3BP-3407) (peptide)
peptide: Hexanoyl-CPPTQFCD-NH2
modifications: linker 1-7 via tMeBn(DOTA-PP)
B1: the % Inhibition of Specific Binding is -3% in assay [1]; -4% in assay [2]; 3% in assay [3]; 0% in assay [4]; 11% in assay [5]; 4% in assay [6]. For the same molecule, the % Inhibition of Specific Binding amounted to 4% in assay [7] and 7% in assay [8].

B2: Hex-[Cys(tMeBn(DOTA-AET))-Pro-Pro-Thr-Gln-Phe-Cys]-OH (3BP-3554) (peptide)
peptide: Hexanoyl-CPPTQFC-OH
modifications: linker 1-7 via tMeBn(DOTA-AET)
On to B2, for which the % Inhibition of Specific Binding is -5% in assay [1]; -16% in assay [2]; -5% in assay [3]; 7% in assay [4]; 4% in assay [5]; -13% in assay [6]. Besides, the % Inhibition of Specific Binding is 8% in assay [7] and 10% in assay [8].

The record behind these values is patent US20220315554A1, “COMPOUNDS COMPRISING A […] LIGAND AND USE THEREOF” (priority 2019, published 2022).
